Measurements taken from patent US20250011428A1 (Novartis, published 2025).

How the values were obtained:
hCD3epsilon-FC antigen [1] = target: T1, hCD3epsilon-FC antigen (human, UniProt P07766 23-126); assay: SPR Biacore T200; hCD3epsilon-FC amine-coupled on CM5, IgG as analyte; design: unit not given here
T1 construct: immobilized by amine coupling on CM5; also called human CD3epsilon

[2] = target: T2, recombinant human hFcγR3a (F158V) (human, UniProt P08637 17-208); assay: SPR Biacore T200; IgG amine-coupled on CM5, receptor as analyte; response normalized to parental (=100);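 note: measured at room temperature in pH 7.6 phosphate buffer with Tween 20, double-referenced sensorgrams, maximum response taken as binding capacity at saturation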
T2 construct: also called FcγRIII
Procedure: (§1) Kinetics and binding capacity were measured on a BIAcore® T200 instrument (GE Healthcare, Glattbrugg, Switzerland) at room temperature, with proteins diluted in running buffer 10 mM NaP, 150 mM NaCl, 0.05% Tween 20, pH7.6. A CM5 sensor chip (Sensor Chip SA, GE Healthcare Life Sciences) was used to immobilized engineered immunoglobulins by amine coupling. Then, recombinant human hFcγR1a, or recombinant human hFcγR3a (F158V), or recombinant human hFcRn, or hC1q was used as the analyte.
(§2) Binding data were acquired by subsequent injection of analyte dilution series on the reference and measuring flow cells. Zero concentration samples (running buffer only) were included to allow double referencing during data evaluation. For data evaluation, doubled referenced sensorgrams were analyzed and the maximum response reached during the experiment was monitored. Maximum response describes the binding capacity of the surface in terms of the response at saturation. Finally, measured maximum responses were normalized to the one measured using parental immunoglobulin (not engineered).

[3] = target: T3, recombinant human hFcγR1a (human, UniProt P12314 16-288, limits assumed); assay: as above
T3 construct: recombinant, analyte in SPR; also called FcγRI
Procedure: as §1, §2

hCD3epsilon-FC antigen [4] = target: T1, hCD3epsilon-FC antigen; assay: SPR Biacore T200; hCD3epsilon-FC amine-coupled on CM5, IgG as analyte; 1:1 model, apparent KD (bivalent analyte)
Procedure: A CM5 sensor chip (Sensor Chip SA, GE Healthcare Life Sciences) was used to immobilize hCD3epsilon-FC antigen by amine coupling. Then, engineered anti-CD3 hIgG1 were used as the analyte.
Binding data were acquired by subsequent injection of analyte dilution series on the reference and measuring flow cells. Zero concentration samples (running buffer only) were included to allow double referencing during data evaluation. For data evaluation, doubled referenced sensorgrams were analyzed by applying a 1:1 binding model analysis to generate the equilibrium dissociation constant (KD). Binding constant described Table 7 are considered as apparent KD since immunoglobulins used as analyte are bivalent for the immobilized antigen. In addition, maximum response reached during the experiment was monitored. Maximum response describes the binding capacity of the surface in terms of the response at saturation. Finally, measured maximum responses were normalized to the one measured using parental immunoglobulin (not engineered).

recombinant human hFcRn = target: T4, recombinant human hFcRn (human, UniProt P55899 24-297; P61769 21-119); assay: SPR Biacore T200; IgG amine-coupled on CM5, hFcRn as analyte; response normalized to parental (=100)
T4 construct: FcRn is normally a heterodimer with it
Procedure: as §1, §2

hC1q = hC1q (human, UniProt P02745 23-245; P02746 28-253; P02747 29-245); assay: SPR Biacore T200; IgG amine-coupled on CM5, hC1q as analyte; response normalized to parental (=100)
hC1q, sequence (P02745 23-245 limits assumed, chain 1 of 3): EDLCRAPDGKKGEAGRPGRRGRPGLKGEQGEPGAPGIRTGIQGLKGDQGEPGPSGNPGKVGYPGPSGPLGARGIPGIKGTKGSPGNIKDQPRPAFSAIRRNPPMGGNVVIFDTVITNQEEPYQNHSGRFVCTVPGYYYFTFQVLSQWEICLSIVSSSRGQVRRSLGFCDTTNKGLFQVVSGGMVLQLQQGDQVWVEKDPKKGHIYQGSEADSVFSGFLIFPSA
hC1q, sequence (P02746 28-253 limits assumed, chain 2 of 3): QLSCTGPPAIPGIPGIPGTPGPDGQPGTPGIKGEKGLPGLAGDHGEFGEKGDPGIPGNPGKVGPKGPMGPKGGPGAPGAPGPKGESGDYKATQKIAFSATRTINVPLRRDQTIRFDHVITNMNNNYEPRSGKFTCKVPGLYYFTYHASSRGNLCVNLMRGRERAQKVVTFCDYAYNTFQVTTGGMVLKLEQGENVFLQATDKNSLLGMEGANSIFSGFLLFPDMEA
hC1q, sequence (P02747 29-245 limits assumed, chain 3 of 3): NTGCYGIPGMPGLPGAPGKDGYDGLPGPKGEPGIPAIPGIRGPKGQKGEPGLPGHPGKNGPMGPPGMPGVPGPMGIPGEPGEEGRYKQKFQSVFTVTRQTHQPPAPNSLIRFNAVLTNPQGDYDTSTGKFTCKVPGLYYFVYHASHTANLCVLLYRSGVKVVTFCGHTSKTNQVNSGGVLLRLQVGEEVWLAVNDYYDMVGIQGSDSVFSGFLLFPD
Procedure: as §1, §2

T1 sequence (P07766 23-126 limits assumed): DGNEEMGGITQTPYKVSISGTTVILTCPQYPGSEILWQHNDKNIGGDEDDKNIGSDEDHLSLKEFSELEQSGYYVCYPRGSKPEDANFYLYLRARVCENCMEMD
T4 sequence (P55899 24-297 limits assumed, chain 1 of 2): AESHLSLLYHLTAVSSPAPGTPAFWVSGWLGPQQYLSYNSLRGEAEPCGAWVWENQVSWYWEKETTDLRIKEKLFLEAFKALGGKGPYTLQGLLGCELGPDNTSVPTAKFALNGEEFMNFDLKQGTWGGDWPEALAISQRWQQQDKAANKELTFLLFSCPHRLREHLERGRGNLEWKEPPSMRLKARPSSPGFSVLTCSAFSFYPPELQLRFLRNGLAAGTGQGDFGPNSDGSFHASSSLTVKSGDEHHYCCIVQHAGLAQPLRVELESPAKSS
T4 sequence (P61769 21-119 limits assumed, chain 2 of 2): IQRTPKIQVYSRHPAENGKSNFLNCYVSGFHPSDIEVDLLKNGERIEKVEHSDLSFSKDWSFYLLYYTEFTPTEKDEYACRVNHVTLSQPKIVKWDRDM
T2 sequence (P08637 17-208 F176V): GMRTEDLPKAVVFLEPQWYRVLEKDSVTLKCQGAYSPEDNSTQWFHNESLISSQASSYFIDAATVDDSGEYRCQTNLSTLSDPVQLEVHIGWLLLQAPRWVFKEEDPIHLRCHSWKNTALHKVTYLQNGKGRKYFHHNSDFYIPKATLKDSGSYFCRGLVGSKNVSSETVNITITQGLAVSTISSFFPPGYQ
T3 sequence (P12314 16-288 limits assumed): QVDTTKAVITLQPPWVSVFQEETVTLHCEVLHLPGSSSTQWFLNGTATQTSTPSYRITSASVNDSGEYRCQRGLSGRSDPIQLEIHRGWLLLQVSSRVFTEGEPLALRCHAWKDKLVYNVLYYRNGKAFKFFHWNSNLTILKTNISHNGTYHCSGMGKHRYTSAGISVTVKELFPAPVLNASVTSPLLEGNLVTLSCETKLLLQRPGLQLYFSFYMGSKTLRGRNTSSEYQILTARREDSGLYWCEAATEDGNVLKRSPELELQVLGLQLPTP

B1: CD3_5_YTE (antibody, human IgG1, lambda)
heavy: EVQLVESGGGLVQPGGSLKLSCAASGFTFNTYAMNWVRQASGKGLEWVGRIRSKYNNYATYYADSVKDRFTISRDDSKSTLYLQMNSLKTEDTAVYYCVRHGNFGNSYVSWFAYWGQGTLVTVSSASTKGPSVFPLAPSSKSTSGGTAALGCLVKDYFPEPVTVSWNSGALTSGVHTFPAVLQSSGLYSLSSVVTVPSSSLGTQTYICNVNHKPSNTKVDKRVEPKSCDKTHTCPPCPAPELCCGPSVFLFPPKPKDTLYITREPEVTCVVVDVSHEDPEVKFNWYVDGVEVHNAKTKPREEQYCSCYRVVSVLTVLHQDWLNGKEYKCKVSNKALPAPIEKTISKAKGQPREPQVYTLPPSRDELTKNQVSLTCLVKGFYPSDIAVEWESNGQPENNYKTTPPVLDSDGSFFLYSKLTVDKSRWQQGNVFSCSVMHEALHNHYTQKSLSLSPGK
light: QAVVTQEPSLTVSPGGTVTLTCRSSTGAVTTSNYANWVQQKPGQAPRGLIGGTNKRAPWTPARFSGSLLGDKAALTLSGAQPEDEAEYFCALWYSNLWVFGGGTKLTVLGQPKAAPSVTLFPPSSEELQANKATLVCLISDFYPGAVTVAWKADSSPVKAGVETTTPSKQSNNKYAASSYLSLTPEQWKSHRSYSCQVTHEGSTVEKTVAPTECS
notes: hIgG1
Maximum response at 125 nM hIgG1 (hCD3epsilon-FC antigen [1]): 322 | Maximum response at 300 nM hFcγR3a F158V (RU) [2]: 17 RU | Maximum response at 100 nM hFcγR1a (RU) [3]: 7 RU | Kd (hCD3epsilon-FC antigen [4]): 3.74 nM | Maximum response at 1840 nM hFcRn (RU) (recombinant human hFcRn): 340 RU

B2: CD3_6_YTE (antibody, human IgG1, lambda)
heavy: EVQLVESGGGLVQPGGSLKLSCAASGFTFNTYAMNWVRQASGKGLEWVGRIRSKYNNYATYYADSVKDRFTISRDDSKSTLYLQMNSLKTEDTAVYYCVRHGNFGNSYVSWFAYWGQGTLVTVSSASTKGPSVFPLAPSSKSTSGGTAALGCLVKDYFPEPVTVSWNSGALTSGVHTFPAVLQSSGLYSLSSVVTVPSSSLGTQTYICNVNHKPSNTKVDKRVEPKSCDKTHTCPPCPAPELCCGPSVFLFPPKPKDTLYITREPEVTCVVVDVSHEDPEVKFNWYVDGVEVHNAKTKPREEQYNSTYRVVSVLTVLHQDWLNGKEYKCKVSNKALPAPIEKTISKAKGQPREPQVYTLPPSRDELTKNQVSLTCLVKGFYPSDIAVEWESNGQPENNYKTTPPVLDSDGSFFLYSKLTVDKSRWQQGNVFSCSVMHEALHNHYTQKSLSLSPGK
light: QAVVTQEPSLTVSPGGTVTLTCRSSTGAVTTSNYANWVQQKPGQAPRGLIGGTNKRAPWTPARFSGSLLGDKAALTLSGAQPEDEAEYFCALWYSNLWVFGGGTKLTVLGQPKAAPSVTLFPPSSEELQANKATLVCLISDFYPGAVTVAWKADSSPVKAGVETTTPSKQSNNKYAASSYLSLTPEQWKSHRSYSCQVTHEGSTVEKTVAPTECS
notes: hIgG1
Maximum response at 125 nM hIgG1 (hCD3epsilon-FC antigen [1]): 340 | Maximum response at 300 nM hFcγR3a F158V (RU) [2]: 15 RU | Maximum response at 100 nM hFcγR1a (RU) [3]: 10 RU | Kd (hCD3epsilon-FC antigen [4]): 2.42 nM | Maximum response at 1840 nM hFcRn (RU) (recombinant human hFcRn): 720 RU

B3: CD3_7_YTE (antibody, human IgG1, lambda)
heavy: EVQLVESGGGLVQPGGSLKLSCAASGFTFNTYAMNWVRQASGKGLEWVGRIRSKYNNYATYYADSVKDRFTISRDDSKSTLYLQMNSLKTEDTAVYYCVRHGNFGNSYVSWFAYWGQGTLVTVSSASTKGPSVFPLAPSSKSTSGGTAALGCLVKDYFPEPVTVSWNSGALTSGVHTFPAVLQSSGLYSLSSVVTVPSSSLGTQTYICNVNHKPSNTKVDKRVEPKSCDKTHTCPPCPAPELLGGPSVFLFPPKPKDTLYITREPEVTCVVVDVSHEDPEVKFNWYVDGVEVHNAKTKPREEQYCSCYRVVSVLTVLHQDWLNGKEYKCKVSNKALPAPIEKTISKAKGQPREPQVYTLPPSRDELTKNQVSLTCLVKGFYPSDIAVEWESNGQPENNYKTTPPVLDSDGSFFLYSKLTVDKSRWQQGNVFSCSVMHEALHNHYTQKSLSLSPGK
light: QAVVTQEPSLTVSPGGTVTLTCRSSTGAVTTSNYANWVQQKPGQAPRGLIGGTNKRAPWTPARFSGSLLGDKAALTLSGAQPEDEAEYFCALWYSNLWVFGGGTKLTVLGQPKAAPSVTLFPPSSEELQANKATLVCLISDFYPGAVTVAWKADSSPVKAGVETTTPSKQSNNKYAASSYLSLTPEQWKSHRSYSCQVTHEGSTVEKTVAPTECS
notes: hIgG1
Maximum response at 125 nM hIgG1 (hCD3epsilon-FC antigen [1]): 367 | Maximum response at 300 nM hFcγR3a F158V (RU) [2]: 19 RU | Maximum response at 100 nM hFcγR1a (RU) [3]: 31 RU | Kd (hCD3epsilon-FC antigen [4]): 2.31 nM | Maximum response at 1840 nM hFcRn (RU) (recombinant human hFcRn): 284 RU

B4: CD3_8 (antibody, human IgG1, lambda)
heavy: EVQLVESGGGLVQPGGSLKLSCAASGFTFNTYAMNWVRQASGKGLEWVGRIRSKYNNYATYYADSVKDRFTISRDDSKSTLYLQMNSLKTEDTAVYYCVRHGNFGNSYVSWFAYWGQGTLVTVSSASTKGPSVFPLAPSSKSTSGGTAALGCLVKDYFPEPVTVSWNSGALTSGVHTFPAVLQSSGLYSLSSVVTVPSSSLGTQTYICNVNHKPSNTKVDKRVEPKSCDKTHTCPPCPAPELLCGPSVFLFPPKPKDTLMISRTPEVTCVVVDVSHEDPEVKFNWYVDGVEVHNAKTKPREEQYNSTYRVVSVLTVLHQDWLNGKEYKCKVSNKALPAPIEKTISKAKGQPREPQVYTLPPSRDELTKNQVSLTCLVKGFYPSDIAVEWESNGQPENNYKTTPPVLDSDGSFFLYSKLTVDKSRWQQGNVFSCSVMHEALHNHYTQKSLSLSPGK
light: QAVVTQEPSLTVSPGGTVTLTCRSSTGAVTTSNYANWVQQKPGQAPRGLIGGTNKRAPWTPARFSGSLLGDKAALTLSGAQPEDEAEYFCALWYSNLWVFGGGTKLTVLGQPKAAPSVTLFPPSSEELQANKATLVCLISDFYPGAVTVAWKADSSPVKAGVETTTPSKQSNNKYAASSYLSLTPEQWKSHRSYSCQVTHEGSTVEKTVAPTECS
notes: hIgG1
Maximum response at 20 nM hC1q (RU) (hC1q): 1 RU | Maximum response at 100 nM hFcγR1a (RU) [3]: 2 RU | Maximum response at 1840 nM hFcRn (RU) (recombinant human hFcRn): 126 RU

B5: CD3_WT_YTE (antibody, human IgG1, lambda)
heavy: EVQLVESGGGLVQPGGSLKLSCAASGFTFNTYAMNWVRQASGKGLEWVGRIRSKYNNYATYYADSVKDRFTISRDDSKSTLYLQMNSLKTEDTAVYYCVRHGNFGNSYVSWFAYWGQGTLVTVSSASTKGPSVFPLAPSSKSTSGGTAALGCLVKDYFPEPVTVSWNSGALTSGVHTFPAVLQSSGLYSLSSVVTVPSSSLGTQTYICNVNHKPSNTKVDKRVEPKSCDKTHTCPPCPAPELLGGPSVFLFPPKPKDTLYITREPEVTCVVVDVSHEDPEVKFNWYVDGVEVHNAKTKPREEQYNSTYRVVSVLTVLHQDWLNGKEYKCKVSNKALPAPIEKTISKAKGQPREPQVYTLPPSRDELTKNQVSLTCLVKGFYPSDIAVEWESNGQPENNYKTTPPVLDSDGSFFLYSKLTVDKSRWQQGNVFSCSVMHEALHNHYTQKSLSLSPGK
light: QAVVTQEPSLTVSPGGTVTLTCRSSTGAVTTSNYANWVQQKPGQAPRGLIGGTNKRAPWTPARFSGSLLGDKAALTLSGAQPEDEAEYFCALWYSNLWVFGGGTKLTVLGQPKAAPSVTLFPPSSEELQANKATLVCLISDFYPGAVTVAWKADSSPVKAGVETTTPSKQSNNKYAASSYLSLTPEQWKSHRSYSCQVTHEGSTVEKTVAPTECS
notes: hIgG1
Maximum response at 125 nM hIgG1 (hCD3epsilon-FC antigen [1]): 342 | Maximum response at 300 nM hFcγR3a F158V (RU) [2]: 71 RU | Maximum response at 100 nM hFcγR1a (RU) [3]: 97 RU | Kd (hCD3epsilon-FC antigen [4]): 2.34 nM | Maximum response at 1840 nM hFcRn (RU) (recombinant human hFcRn): 586 RU

B6: CD3_1_YTE (antibody, human IgG1, lambda)
heavy: EVQLVESGGGLVQPGGSLKLSCAASGFTFNTYAMNWVRQASGKGLEWVGRIRSKYNNYATYYADSVKDRFTISRDDSKSTLYLQMNSLKTEDTAVYYCVRHGNFGNSYVSWFAYWGQGTLVTVSSASTKGPSVFPLAPSSKSTSGGTAALGCLVKDYFPEPVTVSWNSGALTSGVHTFPAVLQSSGLYSLSSVVTVPSSSLGTQTYICNVNHKPSNTKVDKRVEPKSCDKTHTCPPCPAPELCCHPRVFLFPPKPKDTLYITREPEVTCVVTGLRDEDPEVKFNWYVDGVEVHNAKTKPREEQYCGCYSVVSVLTVLHQDWLNGKEYKCKVSNKALPAPIEKTISKAKGQPREPQVYTLPPSRDELTKNQVSLTCLVKGFYPSDIAVEWESNGQPENNYKTTPPVLDSDGSFFLYSKLTVDKSRWQQGNVFSCSVMHEALHNHYTQKSLSLSPGK
light: QAVVTQEPSLTVSPGGTVTLTCRSSTGAVTTSNYANWVQQKPGQAPRGLIGGTNKRAPWTPARFSGSLLGDKAALTLSGAQPEDEAEYFCALWYSNLWVFGGGTKLTVLGQPKAAPSVTLFPPSSEELQANKATLVCLISDFYPGAVTVAWKADSSPVKAGVETTTPSKQSNNKYAASSYLSLTPEQWKSHRSYSCQVTHEGSTVEKTVAPTECS
notes: hIgG1
Maximum response at 125 nM hIgG1 (hCD3epsilon-FC antigen [1]): 371 | Maximum response at 300 nM hFcγR3a F158V (RU) [2]: 20 RU | Maximum response at 100 nM hFcγR1a (RU) [3]: 6 RU | Kd (hCD3epsilon-FC antigen [4]): 2.09 nM | Maximum response at 1840 nM hFcRn (RU) (recombinant human hFcRn): 290 RU
